Reference: paper PMC9396398, “Crystal structure of Ankyrin-G in complex with a fragment of Neurofascin reveals binding mechanisms required for integrity of the axon initial segment” (The Journal of Biological Chemistry, 2022)

Key:
AnkG R8-24 = target: T1, AnkG R8-24 (Rattus norvegicus); test: ITC
T1 chain: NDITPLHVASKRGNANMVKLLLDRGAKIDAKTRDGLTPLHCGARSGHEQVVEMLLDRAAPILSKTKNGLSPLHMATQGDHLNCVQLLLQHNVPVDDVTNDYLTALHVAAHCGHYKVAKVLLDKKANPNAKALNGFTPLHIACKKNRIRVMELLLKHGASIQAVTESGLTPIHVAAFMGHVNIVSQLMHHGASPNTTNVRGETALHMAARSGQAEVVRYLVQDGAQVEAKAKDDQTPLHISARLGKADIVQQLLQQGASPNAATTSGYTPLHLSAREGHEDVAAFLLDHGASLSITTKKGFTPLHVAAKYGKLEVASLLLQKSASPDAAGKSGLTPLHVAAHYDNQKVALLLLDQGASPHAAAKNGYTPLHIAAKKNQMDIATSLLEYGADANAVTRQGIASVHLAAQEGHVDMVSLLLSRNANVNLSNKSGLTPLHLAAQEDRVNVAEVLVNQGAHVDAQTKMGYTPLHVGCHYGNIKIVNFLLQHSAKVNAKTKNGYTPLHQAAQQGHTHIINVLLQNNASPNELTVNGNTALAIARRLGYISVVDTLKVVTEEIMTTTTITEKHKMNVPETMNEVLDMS

AnkG R6-24 = target: T2, AnkG R6-24 (Rattus norvegicus); test: ITC
T2 chain: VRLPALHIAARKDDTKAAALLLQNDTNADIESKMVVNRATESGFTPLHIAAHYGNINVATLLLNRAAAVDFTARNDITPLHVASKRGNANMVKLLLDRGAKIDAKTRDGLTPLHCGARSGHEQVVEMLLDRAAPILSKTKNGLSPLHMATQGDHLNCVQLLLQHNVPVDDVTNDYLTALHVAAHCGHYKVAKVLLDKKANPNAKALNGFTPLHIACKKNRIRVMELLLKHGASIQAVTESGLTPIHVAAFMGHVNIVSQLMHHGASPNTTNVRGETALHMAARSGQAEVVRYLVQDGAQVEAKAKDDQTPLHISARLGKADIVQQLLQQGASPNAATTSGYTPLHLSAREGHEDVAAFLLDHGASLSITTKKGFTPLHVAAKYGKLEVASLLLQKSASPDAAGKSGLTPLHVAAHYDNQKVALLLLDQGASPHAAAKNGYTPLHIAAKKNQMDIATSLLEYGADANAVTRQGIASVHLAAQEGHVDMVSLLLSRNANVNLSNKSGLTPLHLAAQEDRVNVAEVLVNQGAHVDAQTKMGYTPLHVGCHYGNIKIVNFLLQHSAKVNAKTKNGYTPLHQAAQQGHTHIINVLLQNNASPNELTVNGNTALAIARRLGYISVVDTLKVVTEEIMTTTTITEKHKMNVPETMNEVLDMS

Kd (AnkG R8-24): 1100 nM | Kd (AnkG R6-24): 130 nM
B1: Nfasc ankyrin-binding domain (ABD, residues 1187-1214) (domain or fragment, UniProt P97685 1187-1214, looked up)
chain: SDDSLVDYGEGGEGQFNEDGSFIGQYTV
notes: also called Nfasc ABD; source: E. coli BL21 (DE3), purified (Ni-NTA, size-exclusion chromatography)
